# Results reported in US20220276234A1, “POINT-OF-CARE IMMUNOASSAY FOR QUANTITATIVE SMALL ANALYTE DETECTION” (priority 2011, published 2022).
# Legend:
# [1] = cited from earlier work
# [2] = compared with parent compound aripiprazole and dehydro aripiprazole; cited from earlier work
# [3] = in vivo; cited from earlier work
# B7-THC immune complex = test: Proprietary qPCR-based aptamer binding assay, immune complexes anchored to solid support; conditions: qPCR amplification, FIG. 11
# Experimental: (§1) Binding selectivity was tested in varying salt conditions to determine optimal conditions for selection. Using a proprietary binding assay, the aptamers were allowed to incubate with immune complexes that were anchored to a solid support. After the incubation period, the immune complexes were washed, and the amount of aptamer binding was assayed via qPCR. Increased aptamer binding to the immune complex allowed faster detection of DNA amplification.
# (§2) Of the aptamers tested, only one aptamer satisfied the following requirements: (1) binding to the correct immune complex, (2) no binding to the antibody alone, and (3) no binding to the antibody and the incorrect metabolite. FIG. 11 is a qPCR amplification curve showing the binding of Aptamer B7C4 with the immune complex B7-HTHC, the immune complex B7-THC, the B7 antibody alone, and a negative control. Theoretically, every additional cycle indicates 2 times fewer bound aptamer molecules.
# B7-HTHC immune complex [4] = test: as above; conditions: qPCR amplification, FIG. 11
# Experimental: as §1, §2
# B7 antibody alone = test: as above; conditions: qPCR amplification, FIG. 11
# Experimental: as §1, §2
# B7-HTHC immunocomplex = test: Sandwich type ELISA assay with selected derived B7-HTHC aptamers (5' biotin, HRP-streptavidin, TMB); type: binding
# Experimental: The 11 aptamers were synthesized with a 5′ biotin such that they could be detected in ELISA-type assays. The aptamers were tested for their ability to bind to the target in two ways. In both assays, the antibody was coated onto the walls of a microtiter plate. In the first assay, HTHC was added to the antibody. After washing away unbound HTHC, the aptamers were added. In the second assay, the aptamers were added to the wells with HTHC simultaneously. In both assays, after washing away unbound aptamer, the plates were incubated with HRP-streptavidin, and then assayed for the amount of aptamer that remained bound to the immunocomplex using a colorimetric TMB assay.
# B7-HTHC immune complex [5] = test: Capillary electrophoresis test of candidate aptamers; type: binding; conditions: electropherogram peak shift, FIGS. 10A and 10B
# Experimental: Following completion of aptamer selection, aptamers from the first, fifth, and tenth rounds of Structure Switching SELEX were sequenced using standard Next-Generation Sequencing (NGS) methods (AKESOgen). Of the sequences obtained by NGS, ten sequences per aptamer were tested using Capillary Electrophoresis (CE) and in a proprietary assay utilizing real-time PCR.
# The candidate aptamers were initially tested using capillary electrophoresis. Of the 10 B7-HTHC aptamers, 3 were identified as candidate binders. […] This is likely due to the difference between the composition of the buffer required for capillary electrophoresis and the composition of the buffer used during the SELEX selection process.
# [6] = separate incubation: aptamers added after HTHC and washing, FIG. 16A
# [7] = simultaneous incubation: aptamers added with HTHC, FIG. 16B
molecule,measurement,setting,value
CN1CCCC1c1cccnc1 (stereo not shown) [nicotine],Time to reach the brain after inhalation,[1]; crosses the blood-brain barrier,10 to 20 s
same,Elimination half-life in the body,[1]; in vivo,approximately two
O=C(O)CCCOc1ccc2c(c1)NC(=O)CC2 [OPC-3373],Water solubility,[2],much more water soluble
"CCCCCc1cc(O)c2c(c1)OC(C)(C)[C@@H]1CCC(C)=C[C@@H]21 [THC, Delta-9-tetrahydrocannabinol]",Excreted in the feces,[3],More than 55%
same,Excreted in the urine,[3],approximately 20%
"B7C4: parent DNA aptamer selective for the B7-HTHC immune complex (nucleic acid, DNA, backbone not given here; further chemistry not fully specified) DNA: CCTGTCAGTTGCTTACCGGGCACGAGTACGAGACTGCAGGATTCTTCTACACTGCCCCCCATGTAGTGTCCTTGCTCGT",Aptamer binding to B7-THC immune complex,B7-THC immune complex,minimal binding
same,Aptamer binding to B7-HTHC immune complex,B7-HTHC immune complex [4],significant binding
same,Aptamer binding to B7-HTHC immune complex,B7-HTHC immune complex [4]; listed as B7C4-HTHC,high affinity
same,Aptamer binding to B7 antibody alone,B7 antibody alone,minimal binding
same,Aptamer binding to B7 antibody alone,B7 antibody alone; listed as B7C4-HTHC,residual binding affinity
"Aptamer 368.2: selected derived B7-HTHC DNA aptamer (nucleic acid, DNA, backbone and methylation of C not given here) DNA: CCTGTCAGTTGCTTACCGGGCACGAGTACGAGACTGCAGGATTCTTCTACACTGCTCCCCATGTAGTGTCCTTGCTCGT","Normalized absorption signal, aptamer binding to immunocomplex",B7-HTHC immunocomplex; [6],significant binding
same,"Normalized absorption signal, aptamer binding to immunocomplex",B7-HTHC immunocomplex; [7],significant binding
"Aptamer 815: selected derived B7-HTHC DNA aptamer, family 2 (nucleic acid, DNA, backbone and methylation of C not given here) DNA: CCTGTCAGTTGCTTACCGGGCACGAGTACTAGACTGCAGGATTCTTCTACACTGCCCCCCATGTAGTGTCCTTGCTCGT","Normalized absorption signal, aptamer binding to immunocomplex",B7-HTHC immunocomplex; [6],high binding
same,"Normalized absorption signal, aptamer binding to immunocomplex",B7-HTHC immunocomplex; [7],lost this ability
"Aptamer 444: selected derived B7-HTHC DNA aptamer (nucleic acid, DNA, backbone and methylation of C not given here) DNA: CCTGTCAGTTGCTTACCGGGCACGAGTACGAGACTGCAGGATTCTTCTACACTGCGCCCCATGTAGTGTCCTTGCTCGT","Normalized absorption signal, aptamer binding to immunocomplex",B7-HTHC immunocomplex; [6],high sensitivity
same,"Normalized absorption signal, aptamer binding to immunocomplex",B7-HTHC immunocomplex; [7],reduced sensitivity
"B7C1: candidate DNA aptamer for antibody B7 and HTHC (nucleic acid, DNA, backbone not given here; further chemistry not fully specified, candidate DNA aptamer for antibody B7 and HTHC) DNA: CCTGTCAGTTGCTTACCGGCCCAGGTGTAGTAACTGCAGGGATTCTTAACGTAGCTACCGGGTGTAGTGTCCTTGCTCGT",Binding to immune complex by capillary electrophoresis,B7-HTHC immune complex [5],peak shifts associated with the introduction of the immune complex
"Aptamer 493: selected derived B7-HTHC DNA aptamer (nucleic acid, DNA, backbone and methylation of C not given here) DNA: CCTGTCAGTTGCTTACCGGGCACGAGTACGAGACTGCAGGATTCTTCTACACTGCACCCCATGTAGTGTCCTTGCTC","Normalized absorption signal, aptamer binding to immunocomplex",B7-HTHC immunocomplex; [6],the opposite behavior compared to that of aptamer 444
same,"Normalized absorption signal, aptamer binding to immunocomplex",B7-HTHC immunocomplex; [7],the opposite behavior compared to that of aptamer 444
